Reference: the supplement of paper PMC9112550, “Optimization of the antimicrobial peptide Bac7 by deep mutational scanning” (BMC Biology, 2022)

System: Escherichia coli TOP10
Assay: shrunken log2 fold change of peptide-encoding DNA abundance (4.5 h post-induction vs induction); higher = less antimicrobial activity (less host growth inhibition)
Settings: time post-induction: 4.5 h; library: site-saturation at positions 5, 18, 19, 20
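Also: peptides expressed intracellularly from a pBAD plasmid library in pooled LB shake-flask culture, induced with 0.3% L-arabinose, DNA abundance read by NGS, three biological replicates, DESeq2 with apeglm shrinkage.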

Row | Sequence | shrunken log2 fold change
1 | RRIRPRPPRLPRPRPRPVTDPRP | -0.393
2 | RRIRPRPPRLPRPRPRPVVDPRP | -0.107
3 | RRIRPRPPRLPRPRPRPVWGPRP | 0.0591
4 | RRIRPRPPRLPRPRPRPVWHPRP | 0.186
5 | RRIRPRPPRLPRPRPRPVWMPRP | 0.136
6 | RRIRPRPPRLPRPRPRPVWWPRP | 0.232
7 | RRIRPRPPRLPRPRPRPVYQPRP | -0.0913
8 | RRIRPRPPRLPRPRPRPWALPRP | -0.0895
9 | RRIRPRPPRLPRPRPRPWCIPRP | -0.519
10 | RRIRPRPPRLPRPRPRPWCPPRP | 2.07
11 | RRIRPRPPRLPRPRPRPWCTPRP | -0.218
12 | RRIRPRPPRLPRPRPRPWEEPRP | 0.148
13 | RRIRPRPPRLPRPRPRPWETPRP | 0.124
14 | RRIRPRPPRLPRPRPRPWFEPRP | -0.261
15 | RRIRPRPPRLPRPRPRPWFRPRP | -0.0017
16 | RRIRPRPPRLPRPRPRPWFVPRP | -0.25
17 | RRIRPRPPRLPRPRPRPWGGPRP | 0.702
18 | RRIRPRPPRLPRPRPRPWGIPRP | -0.0138
19 | RRIRPRPPRLPRPRPRPWGNPRP | -0.225
20 | RRIRPRPPRLPRPRPRPWHNPRP | -0.809
21 | RRIRPRPPRLPRPRPRPWHTPRP | -0.087
22 | RRIRPRPPRLPRPRPRPWLHPRP | -0.173
23 | RRIRPRPPRLPRPRPRPWLVPRP | 0.159
24 | RRIRPRPPRLPRPRPRPWMIPRP | -0.334
25 | RRIRPRPPRLPRPRPRPWMYPRP | -0.691

Row | Sequence | shrunken log2 fold change
26 | RRIRPRPPRLPRPRPRPWNDPRP | 0.0243
27 | RRIRPRPPRLPRPRPRPWPDPRP | -0.149
28 | RRIRPRPPRLPRPRPRPWQMPRP | 0.0571
29 | RRIRPRPPRLPRPRPRPWSTPRP | -0.172
30 | RRIRPRPPRLPRPRPRPWVDPRP | 0.064
31 | RRIRPRPPRLPRPRPRPYCPPRP | -0.365
32 | RRIRPRPPRLPRPRPRPYDFPRP | -0.194
33 | RRIRPRPPRLPRPRPRPYEAPRP | -0.282
34 | RRIRPRPPRLPRPRPRPYFSPRP | -0.31
35 | RRIRPRPPRLPRPRPRPYGYPRP | -0.138
36 | RRIRPRPPRLPRPRPRPYHIPRP | -0.672
37 | RRIRPRPPRLPRPRPRPYINPRP | -0.739
38 | RRIRPRPPRLPRPRPRPYITPRP | -0.739
39 | RRIRPRPPRLPRPRPRPYLFPRP | -0.434
40 | RRIRPRPPRLPRPRPRPYLHPRP | -0.471
41 | RRIRPRPPRLPRPRPRPYLIPRP | -0.445
42 | RRIRPRPPRLPRPRPRPYLMPRP | -0.58
43 | RRIRPRPPRLPRPRPRPYLTPRP | -0.689
44 | RRIRPRPPRLPRPRPRPYMWPRP | -0.455
45 | RRIRPRPPRLPRPRPRPYNGPRP | -0.656
46 | RRIRPRPPRLPRPRPRPYNLPRP | -0.708
47 | RRIRPRPPRLPRPRPRPYNNPRP | -1.25
48 | RRIRPRPPRLPRPRPRPYPMPRP | -0.0996
49 | RRIRPRPPRLPRPRPRPYQSPRP | -0.194
50 | RRIRPRPPRLPRPRPRPYQTPRP | 0.0331

Row | Sequence | shrunken log2 fold change
51 | RRIRPRPPRLPRPRPRPYQYPRP | -0.292
52 | RRIRPRPPRLPRPRPRPYRQPRP | -0.0384
53 | RRIRPRPPRLPRPRPRPYTYPRP | -0.0956
54 | RRIRPRPPRLPRPRPRPYVMPRP | -0.706
55 | RRIRPRPPRLPRPRPRPYWEPRP | -0.0429
56 | RRIRPRPPRLPRPRPRPYWGPRP | -0.201
57 | RRIRPRPPRLPRPRPRPYWIPRP | -0.509
58 | RRIRQRPPRLPRPRPRPAAFPRP | 0.39
59 | RRIRQRPPRLPRPRPRPAEWPRP | -0.357
60 | RRIRQRPPRLPRPRPRPAFLPRP | -0.0387
61 | RRIRQRPPRLPRPRPRPAGSPRP | 0.0285
62 | RRIRQRPPRLPRPRPRPAHPPRP | 0.181
63 | RRIRQRPPRLPRPRPRPAHRPRP | 0.151
64 | RRIRQRPPRLPRPRPRPAIGPRP | 0.216
65 | RRIRQRPPRLPRPRPRPAKKPRP | -0.0522
66 | RRIRQRPPRLPRPRPRPAKNPRP | -0.0935
67 | RRIRQRPPRLPRPRPRPALCPRP | 0.171
68 | RRIRQRPPRLPRPRPRPALMPRP | 0.0376
69 | RRIRQRPPRLPRPRPRPALSPRP | 0.217
70 | RRIRQRPPRLPRPRPRPAMPPRP | 0.306
71 | RRIRQRPPRLPRPRPRPAPAPRP | 0.707
72 | RRIRQRPPRLPRPRPRPAPQPRP | 0.522
73 | RRIRQRPPRLPRPRPRPAPSPRP | 0.492
74 | RRIRQRPPRLPRPRPRPAQSPRP | 0.29
75 | RRIRQRPPRLPRPRPRPASEPRP | -0.019

Row | Sequence | shrunken log2 fold change
76 | RRIRQRPPRLPRPRPRPASIPRP | -0.0578
77 | RRIRQRPPRLPRPRPRPATMPRP | -0.0699
78 | RRIRQRPPRLPRPRPRPATRPRP | 0.616
79 | RRIRQRPPRLPRPRPRPAVDPRP | 0.963
80 | RRIRQRPPRLPRPRPRPAVQPRP | 0.013
81 | RRIRQRPPRLPRPRPRPAWEPRP | 0.245
82 | RRIRQRPPRLPRPRPRPCDGPRP | -0.26
83 | RRIRQRPPRLPRPRPRPCEFPRP | -0.311
84 | RRIRQRPPRLPRPRPRPCEGPRP | -0.000921
85 | RRIRQRPPRLPRPRPRPCEPPRP | -0.0332
86 | RRIRQRPPRLPRPRPRPCEWPRP | 0.000996
87 | RRIRQRPPRLPRPRPRPCFCPRP | -0.0837
88 | RRIRQRPPRLPRPRPRPCFSPRP | -0.0347
89 | RRIRQRPPRLPRPRPRPCHNPRP | -0.0554
90 | RRIRQRPPRLPRPRPRPCHPPRP | -0.032
91 | RRIRQRPPRLPRPRPRPCHTPRP | -0.207
92 | RRIRQRPPRLPRPRPRPCIEPRP | 0.015
93 | RRIRQRPPRLPRPRPRPCIFPRP | -0.142
94 | RRIRQRPPRLPRPRPRPCKLPRP | -0.167
95 | RRIRQRPPRLPRPRPRPCKPPRP | -0.207
96 | RRIRQRPPRLPRPRPRPCLGPRP | 0.172
97 | RRIRQRPPRLPRPRPRPCLMPRP | -0.0141
98 | RRIRQRPPRLPRPRPRPCLYPRP | -0.29
99 | RRIRQRPPRLPRPRPRPCMMPRP | -0.498
100 | RRIRQRPPRLPRPRPRPCMNPRP | -0.0959

Row | Sequence | shrunken log2 fold change
101 | RRIRQRPPRLPRPRPRPCPPPRP | 0.00708
102 | RRIRQRPPRLPRPRPRPCQDPRP | 0.0207
103 | RRIRQRPPRLPRPRPRPCQQPRP | -0.0108
104 | RRIRQRPPRLPRPRPRPCRAPRP | 0.106
105 | RRIRQRPPRLPRPRPRPCRFPRP | 0.00388
106 | RRIRQRPPRLPRPRPRPCTNPRP | -0.359
107 | RRIRQRPPRLPRPRPRPCVHPRP | -0.629
108 | RRIRQRPPRLPRPRPRPCVSPRP | -0.107
109 | RRIRQRPPRLPRPRPRPCWGPRP | 0.0281
110 | RRIRQRPPRLPRPRPRPCYEPRP | -0.0157
111 | RRIRQRPPRLPRPRPRPCYIPRP | -0.191
112 | RRIRQRPPRLPRPRPRPCYVPRP | -0.0541
113 | RRIRQRPPRLPRPRPRPCYWPRP | -0.229
114 | RRIRQRPPRLPRPRPRPDAHPRP | -0.0825
115 | RRIRQRPPRLPRPRPRPDAPPRP | 0.655
116 | RRIRQRPPRLPRPRPRPDCEPRP | -0.00144
117 | RRIRQRPPRLPRPRPRPDCSPRP | 0.0489
118 | RRIRQRPPRLPRPRPRPDDYPRP | 0.0372
119 | RRIRQRPPRLPRPRPRPDFEPRP | 0.0209
120 | RRIRQRPPRLPRPRPRPDFFPRP | 0.00508
121 | RRIRQRPPRLPRPRPRPDGMPRP | -0.199
122 | RRIRQRPPRLPRPRPRPDHAPRP | 0.014
123 | RRIRQRPPRLPRPRPRPDHLPRP | 0.0112
124 | RRIRQRPPRLPRPRPRPDKSPRP | -0.0319
125 | RRIRQRPPRLPRPRPRPDLCPRP | -0.00719

Row | Sequence | shrunken log2 fold change
126 | RRIRQRPPRLPRPRPRPDLLPRP | 0.126
127 | RRIRQRPPRLPRPRPRPDLQPRP | -0.0429
128 | RRIRQRPPRLPRPRPRPDNYPRP | -0.194
129 | RRIRQRPPRLPRPRPRPDPSPRP | -0.132
130 | RRIRQRPPRLPRPRPRPDRMPRP | -0.0981
131 | RRIRQRPPRLPRPRPRPDSTPRP | 0.139
132 | RRIRQRPPRLPRPRPRPDTCPRP | 0.0121
133 | RRIRQRPPRLPRPRPRPDVEPRP | -0.0335
134 | RRIRQRPPRLPRPRPRPDWHPRP | -0.038
135 | RRIRQRPPRLPRPRPRPDWNPRP | -0.189
136 | RRIRQRPPRLPRPRPRPDYFPRP | -0.198
137 | RRIRQRPPRLPRPRPRPEATPRP | 0.353
138 | RRIRQRPPRLPRPRPRPECLPRP | -0.21
139 | RRIRQRPPRLPRPRPRPEDPPRP | -0.00697
140 | RRIRQRPPRLPRPRPRPEDQPRP | 0.0199
141 | RRIRQRPPRLPRPRPRPEDTPRP | -0.0122
142 | RRIRQRPPRLPRPRPRPEEGPRP | -0.0102
143 | RRIRQRPPRLPRPRPRPEELPRP | -0.0362
144 | RRIRQRPPRLPRPRPRPEFSPRP | 0.362
145 | RRIRQRPPRLPRPRPRPEGNPRP | -0.00965
146 | RRIRQRPPRLPRPRPRPEGSPRP | -0.00794
147 | RRIRQRPPRLPRPRPRPEKIPRP | 2.55
148 | RRIRQRPPRLPRPRPRPEKWPRP | -0.191
149 | RRIRQRPPRLPRPRPRPELWPRP | 0.27
150 | RRIRQRPPRLPRPRPRPENGPRP | -0.0161
